Consider five molecules from paper PMC10156733, “N-Formimidoylation/-iminoacetylation modification in aminoglycosides requires FAD-dependent and ligand-protein NOS bridge dual chemistry” (Nature Communications, 2023).

In data set [1] the target is T1, Orf1 (Streptomyces luteocolor, UniProt A0A125SZC1).
T1 construct: full length, 491 residues; pET28a, His-tagged (Ni-NTA), E. coli BL21(DE3); tetramer with FAD in each chain; peptide AFAC281GLHLVPR
T1 sequence (A0A125SZC1 1-491): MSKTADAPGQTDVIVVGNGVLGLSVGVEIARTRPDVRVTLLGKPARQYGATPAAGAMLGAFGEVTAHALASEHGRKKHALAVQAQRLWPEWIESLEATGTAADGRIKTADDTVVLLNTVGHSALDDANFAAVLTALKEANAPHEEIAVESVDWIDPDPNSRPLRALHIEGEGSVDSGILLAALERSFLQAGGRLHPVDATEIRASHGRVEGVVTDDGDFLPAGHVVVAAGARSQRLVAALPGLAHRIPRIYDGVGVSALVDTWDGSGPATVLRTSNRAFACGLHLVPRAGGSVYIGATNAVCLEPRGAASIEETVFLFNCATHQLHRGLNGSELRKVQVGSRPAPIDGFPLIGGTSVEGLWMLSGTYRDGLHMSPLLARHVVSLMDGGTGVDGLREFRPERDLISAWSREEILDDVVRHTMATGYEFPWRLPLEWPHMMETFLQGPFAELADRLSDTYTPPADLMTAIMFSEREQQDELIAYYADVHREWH
As to the kind of experiment: LC-MS of denatured protein; X-ray crystal structure. In kind it is binding. Conditions: prosthetic group, copurified.

Data set [2] deals with T2, AAC(6’)-Ie-APH(6”)-Ia; aac(6’)-Ie-aph(2”)-Ia (Staphylococcus aureus, UniProt P0A0C1).
T2 construct: gene aacA-aphD; synthetic gene, recombinant
As to the kind of experiment: in vitro N-acetylation assay. The format is biochemical. Conditions: acetylation only to some extent.

The target of data set [3] is T1, Orf1. Description: isothermal titration calorimetry. The format is binding. From the text: isothermal titration calorimetry on Orf1 | binding affinities of ST-F versus Orf1 wild-type or mutants were estimated
Data set [4] addresses T3, Orf1 (Streptomyces luteocolor, UniProt A0A125SZC1, E312A).
T3 construct: full length, 491 residues; pET28a, His-tagged (Ni-NTA), E. coli BL21(DE3); tetramer with FAD in each chain; peptide AFAC281GLHLVPR
As to the kind of experiment: isothermal titration calorimetry. The format is binding.

In data set [5] the target is T4, Orf1 (Streptomyces luteocolor, UniProt A0A125SZC1, R342A).
T4 construct: full length, 491 residues; pET28a, His-tagged (Ni-NTA), E. coli BL21(DE3); tetramer with FAD in each chain; peptide AFAC281GLHLVPR
Description: isothermal titration calorimetry. The format is binding. From the text:
isothermal titration calorimetry on Orf1 | held the same ST-F binding affinity as the wild type

For data set [6], the system named is NCCCC(N)CC(=O)NC1C(N=C2NC3C(=O)NCC(O)C3N2)OC(CO)C(OC(N)=O)C1O. As to the kind of experiment: LC-MS of ST-F consumption. In kind it is biochemical, Streptomyces luteocolor. The note with it: glycine + ST-F, ST-F varied 25-500 μM, 100 mM sodium phosphate pH 8, 37 °C, crystal complex with glycine.
Substrate in data set [7]: NCCCC(N)CC(=O)NC1C(N=C2NC3C(=O)NCC(O)C3N2)OC(CO)C(OC(N)=O)C1O
As to the kind of experiment: LC-MS of ST-F consumption. The format is biochemical, Streptomyces luteocolor. Conditions: glycine + ST-F, ST-F varied 25-500 μM, 100 mM sodium phosphate pH 8, 37 °C.

Substrate in the data set “purified protein”: NCC(=O)O
As to the kind of experiment: purified protein. In kind it is biochemical, Streptomyces luteocolor. Conditions: single substrate glycine (oxidation phase), 100 mM sodium phosphate pH 8, crystal complex also shows covalent glycine imine-N-O-S adduct at C281.

On to `Cc1cc2nc3c(=O)[nH]c(=O)nc-3n(C[C@H](O)[C@H](O)[C@H](O)COP(=O)(O)OP(=O)(O)OC[C@H]3O[C@@H](n4cnc5c(N)ncnc54)[C@H](O)[C@@H]3O)c2cc1C` [FAD], for which the “LC-MS of denatured protein; X-ray crystal structure” value at Orf1 [1] was “This yellow cofactor was determined to be flavin adenine dinucleotide (FAD)”.

For the molecule `NCC(=O)N[C@@H]1[C@H](O)[C@@H](OC(N)=O)[C@@H](CO)O[C@H]1N=C1N[C@@H]2[C@H](O)CNC(=O)[C@H]2N1` [compound 4, glycylthricin], in data set [2], the “in vitro N-acetylation assay” value is “inactivated glycylthricin by N-acetylation to some extent in in vitro assay”.

For the molecule `NCCCC(N)CC(=O)NC1C(N=C2NC3C(=O)NCC(O)C3N2)OC(CO)C(OC(N)=O)C1O` (centres unmarked) [compound 7, ST-F], the Kd at Orf1 [3] was found to be 11.3 µM; on Orf1 [4], 55.2 µM; on Orf1 [5] it was 14.3 µM.

For Orf1 (Streptomyces luteocolor; F316A), in data set [6], the Km was 190 µM and the kcat was found to be 0.119 s⁻¹.

B1: Orf1 (Streptomyces luteocolor) (protein)
chain: T1 sequence (A0A125SZC1 1-491)
notes: full length, 491 residues; pET28a, His-tagged (Ni-NTA), E. coli BL21(DE3); tetramer with FAD in each chain; peptide AFAC281GLHLVPR
With B1, in data set [7], the Km came out at 196 µM and the kcat is 0.0513 s⁻¹. In addition, in the data set “purified protein”, the Km is 202 µM and the kcat was 0.0123 s⁻¹.
